Assays:
[1] = target: IgE on the surface of patients' basophils (human (endogenous in patients' blood)); assay: flow cytometry on cells; EDTA blood of allergic donors preincubated with 026 sdab (0 to 45 µmol/l) for up to 60 min in IL-3-containing stimulation buffer; remaining surface IgE on basophils stained with anti-IgE-FITC
[2] = target: IgE Fc Cε2–4 (human); assay: SPR; Biacore T200; IgE Fc immobilized (110 RU) on CM5 by NHS/EDC; 026 sdab injected 0.003-50 µg/ml, 25 µl/min; 25 °C; 10 mM monosodium phosphate, 40 mM disodium phosphate, 100 mM NaCl, pH 7.4, 0.01% Tween-20; 1:1 binding model

Chain of IgE on the surface of patients' basophils (human (endogenous in patients' blood)) (P01854 whole entry): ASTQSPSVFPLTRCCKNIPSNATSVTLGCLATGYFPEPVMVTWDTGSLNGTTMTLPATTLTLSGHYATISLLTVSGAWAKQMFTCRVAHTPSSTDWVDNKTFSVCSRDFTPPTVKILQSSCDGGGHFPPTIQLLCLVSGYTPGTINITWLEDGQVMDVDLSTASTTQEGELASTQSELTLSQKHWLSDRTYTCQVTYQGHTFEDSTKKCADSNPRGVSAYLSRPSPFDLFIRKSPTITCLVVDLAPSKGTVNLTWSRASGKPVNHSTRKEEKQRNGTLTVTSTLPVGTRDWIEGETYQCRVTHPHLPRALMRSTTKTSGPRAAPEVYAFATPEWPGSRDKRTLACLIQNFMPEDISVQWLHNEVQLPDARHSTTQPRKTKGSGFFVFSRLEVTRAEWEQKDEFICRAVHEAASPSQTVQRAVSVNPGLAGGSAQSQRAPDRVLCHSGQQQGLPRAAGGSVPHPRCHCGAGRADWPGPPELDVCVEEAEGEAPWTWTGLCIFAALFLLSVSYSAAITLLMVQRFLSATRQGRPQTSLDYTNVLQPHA

surface IgE left on basophils after 15 min with 026 sdab [1]: 30%
surface IgE left on basophils after prolonged incubation with 026 sdab [1]: 20%
Kd [2]: 1.4 nM
B1: 026 sdab (VHH)
VHH: EVQLLESGGGLVQPGGSLRLSCAASGFTFGNYDMAWVRQAPGKRPEWVSSIDTGGDITHYADSVKGRFTISRDNAKNTLYLQMNSLRPEDTAVYWCATDEEYALGPNEFDYYGQGTLVTVSS

From paper PMC5750235
